Data from paper PMC2696619.
Read-outs that look alike come from different tables or passages of the source.

Assays:
human C3b (human) [1] = target: human C3b (human) (UniProt P01024); test: radioligand binding
human C3b (human) [2] = target: human C3b (human) (UniProt P01024); test: radioligand binding; remark: listed apart in the source

wildtype rH19-20 (recombinant domains 19-20 of factor H) (from UniProt P08603 1107-1231) (domain or fragment)
IC50 (human C3b (human) [1]): 200 nM
IC50 (human C3b (human) [2]): 1000 nM
